Measured values published in patent US11618906B2, “Hydroxylation techniques” (HYPHA DISCOVERY LTD., priority 2018, dated 2023).

B1: aluC09M12: cytochrome P450 aluC09 mutant T291E; amino acid sequence SEQ ID NO: 12 (protein, listed as Amycolatopsis lurida)
chain: MTDVEETTATLPLARKCPFSPPPEYERLRRESPVSRVGLPSGQTAWALTRLEDIREMLSSPHFSSDRQSPSFPLMVARQIRREDKPFRPSLIAMDPPEHSRARRDVVGEFTVKRMKALQPRIQQIVDEHLDALLAGPKPADLVQALSLPVPSLVICELLGVPYSDHEFFQSCSSRMLSREVTAEERMTAFEQLENYLDELVTKKEANATEDDLLGRQILKQRETGEADHGELVGLAFLLLIAGHETTANMISLGTVTLLENPDQLAKIKADPGKTLAAIEELLRVFTIAEEATSRFATADVEIGGTLIRAGEGVVGLSNAGNHDPDGFENPDTFDIERGARHHVAFGFGVHQCLGQNLARLELQIVFDTLFRRVPGLRIAVPVDELPFKHDSTIYGLHALPVTW
B2: aluC09M17: cytochrome P450 aluC09 mutant T291N; amino acid sequence SEQ ID NO: 16 (protein, listed as Amycolatopsis lurida)
chain: MTDVEETTATLPLARKCPFSPPPEYERLRRESPVSRVGLPSGQTAWALTRLEDIREMLSSPHFSSDRQSPSFPLMVARQIRREDKPFRPSLIAMDPPEHSRARRDVVGEFTVKRMKALQPRIQQIVDEHLDALLAGPKPADLVQALSLPVPSLVICELLGVPYSDHEFFQSCSSRMLSREVTAEERMTAFEQLENYLDELVTKKEANATEDDLLGRQILKQRETGEADHGELVGLAFLLLIAGHETTANMISLGTVTLLENPDQLAKIKADPGKTLAAIEELLRVFTIAENATSRFATADVEIGGTLIRAGEGVVGLSNAGNHDPDGFENPDTFDIERGARHHVAFGFGVHQCLGQNLARLELQIVFDTLFRRVPGLRIAVPVDELPFKHDSTIYGLHALPVTW
B3: aluC09M31: cytochrome P450 aluC09 mutant T291S; amino acid sequence SEQ ID NO: 36 (protein, listed as Amycolatopsis lurida)
chain: MTDVEETTATLPLARKCPFSPPPEYERLRRESPVSRVGLPSGQTAWALTRLEDIREMLSSPHFSSDRQSPSFPLMVARQIRREDKPFRPSLIAMDPPEHSRARRDVVGEFTVKRMKALQPRIQQIVDEHLDALLAGPKPADLVQALSLPVPSLVICELLGVPYSDHEFFQSCSSRMLSREVTAEERMTAFEQLENYLDELVTKKEANATEDDLLGRQILKQRETGEADHGELVGLAFLLLIAGHETTANMISLGTVTLLENPDQLAKIKADPGKTLAAIEELLRVFTIAESATSRFATADVEIGGTLIRAGEGVVGLSNAGNHDPDGFENPDTFDIERGARHHVAFGFGVHQCLGQNLARLELQIVFDTLFRRVPGLRIAVPVDELPFKHDSTIYGLHALPVTW

Experiments:
Format in all cases: biochemical
[1] = O-demethylation of indomethacin catalysed by cytochrome P450 aluC09 and mutants; settings: % by UV peak area at 275 nm; 0.125 mg/ml substrate, 27° C., 16-20 hours
Procedure, shortened: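 Lyophilised CYP450aluC09 mutants with ferredoxin aluF03 and reductase SCF15A, 0.125 mg/ml substrate, 50 mM potassium phosphate pH 7.4, 5 mM MgCl2, G6P/G6PDH/NADP recycling. Shaken 16-20 h at 27° C. Acetonitrile-quenched, conversion measured by UPLC-MS.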

[2] = Hydroxylation of diclofenac catalysed by cytochrome P450 aluC09 and mutants (UPLC-PDA-MS); settings: for 4′,5-dihydroxy-diclofenac 1.38 mins / 4′-hydroxy-diclofenac (1) 1.62 mins / 5-hydroxy-diclofenac (2) 1.58 mins / Diclofenac (Substrate) 1.81 mins: % by UV peak area at 275 nm, 0.125 mg/ml substrate, 27° C., 16-20 hours; for Hydroxylated Ratio hydroxy 1:hydroxy 2: diclofenac, ratio of UV peak areas at 275nm
Procedure, shortened: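 Lyophilised CYP450aluC09 or mutants, with ferredoxin aluF03 and reductase SCF15A, incubated 16-20 hours at 27° C with 0.125 mg/ml diclofenac in 50 mM potassium phosphate pH 7.4, 5 mM MgCl2, and G6P/NADP/G6PDH regeneration. Acetonitrile-extracted; conversion by UPLC-PDA-MS against authentic hydroxylated standards.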

[3] = Metabolism of tofacitinib by P450 aluC09 and mutants; settings: percent of substrate being converted; 0.125 mg/ml, 27° C., 16-20 hours; [CYP] per enzyme as in Table 8
Procedure, shortened: (§1)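 Mutant P450s were combined with redox partners and substrate (0.125 mg/ml) in pH 7.4 phosphate buffer with 5 mM MgCl2 and cofactor recycling (1 mM NADP, 5 mM G6P, 2 UN/ml G6PDH). Mixtures were shaken at 27° C for 16-20 hours, extracted with equal-volume acetonitrile and centrifuged. Products were quantified as conversion by UPLC-MS.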

[4] = Hydroxylation of aceclofenac catalysed by cytochrome P450 aluC09 and mutants; settings: for Aceclofenac (Substrate) (1.80 mins) / Dihydroxy-Aceclofenac (1.42 mins) / Hydroxy-Aceclofenac (1) (1.64 min) / Hydroxy-Aceclofenac (2) (1.60 min): % by UV peak area at 275 nm, 0.125 mg/ml substrate, 27° C., 16-20 hours; for Hydroxylated Ratio 2:1: aceclofenac, ratio of UV peak areas at 275 nm
Procedure, shortened: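 Conversion was assessed by UPLC-MS (UV and MS detection) after acetonitrile extraction of reactions run 16-20 h at 27° C, shaking. Reactions contained substrate at 0.125 mg/ml, P450 mutant plus ferredoxin and reductase partners, 1 mM NADP with glucose-6-phosphate regeneration, in phosphate buffer pH 7.4.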

[5] = Metabolism of celecoxib by P450 aluC09 and mutants; settings: percent of substrate being converted; 0.125 mg/ml, 27° C., 16-20 hours; [CYP] per enzyme as in Table 8
Procedure, shortened: as §1

[6] = Metabolism of buparvaquone by P450 aluC09 and mutants; settings: percent of substrate being converted; 0.125 mg/ml, 27° C., 16-20 hours; [CYP] per enzyme as in Table 8
Procedure, shortened: as §1

[7] = Hydroxylation / de-N-ethylation of napropamide catalysed by cytochrome P450 aluC09 and mutants; settings: for Desethyl Napropamide (1.62 min) / Desethyl-hydroxy-Napropamide (1.41 min) / Hydroxy-Napropamide (1) (1.53 min) / Hydroxy-Napropamide (2), (1.52 min) / M-2Da (unidentified) (1.89 min) / Napropamide (substrate): % by UV peak area at 275 nm, 0.125 mg/ml substrate, 27° C., 16-20 hours; for Hydroxylated Ratio 2:1: napropamide, ratio of UV peak areas
Procedure, shortened: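 Conversion of napropamide (0.125 mg/ml) to hydroxylated and de-ethylated metabolites was measured by UPLC-MS after acetonitrile extraction. Reactions ran 16-20 h at 27° C in pH 7.4 potassium phosphate (50 mM) with 5 mM MgCl2, 1 mM NADP, 5 mM G6P and 2 UN/ml G6PDH. Enzymes were lyophilised P450 aluC09 variants, ferredoxin aluF03 and ferredoxin reductase SCF15A.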

[8] = Hydroxylation of flufenamic acid catalysed by cytochrome P450 aluC09 and mutants; settings: for Flufenamic Acid (Substrate) 1.93 mins / Hydroxy-Flufenamic Acid (1) 1.69 mins / Hydroxy-Flufenamic Acid (2) 1.65 mins: % by UV peak area at 275 nm, 0.125 mg/ml substrate, 27° C., 16-20 hours; for Hydroxylated Ratio 1:2: flufenamic acid, ratio of UV peak areas at 275 nm
Procedure, shortened: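 Lyophilised CYP450aluC09 mutants with ferredoxin aluF03 and reductase SCF15A, in 50 mM potassium phosphate pH 7.4, 5 mM MgCl2, 0.125 mg/ml flufenamic acid, G6P/NADP/G6PDH NADPH regeneration. Shaken 16-20 h at 27° C; acetonitrile-quenched, conversion to two hydroxy products by UPLC-MS.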

[9] = Metabolism of ruxolitinib by P450 aluC09 and mutants; settings: percent of substrate being converted; 0.125 mg/ml, 27° C., 16-20 hours; [CYP] per enzyme as in Table 8
Procedure, shortened: as §1

[10] = Metabolism of bosentan by P450 aluC09 and mutants; settings: percent of substrate being converted; 0.125 mg/ml, 27° C., 16-20 hours; [CYP] per enzyme as in Table 8
Procedure, shortened: as §1

[11] = Metabolism of valsartan by P450 aluC09 and mutants; settings: percent of substrate being converted; 0.125 mg/ml, 27° C., 16-20 hours; [CYP] per enzyme as in Table 8
Procedure, shortened: as §1

[12] = Metabolism of ritonavir by P450 aluC09 and mutants; settings: percent of substrate being converted; 0.125 mg/ml, 27° C., 16-20 hours; [CYP] per enzyme as in Table 8
Procedure, shortened: as §1

[13] = Metabolism of epothilone B by P450 aluC09 and mutants; settings: percent of substrate being converted; 0.125 mg/ml, 27° C., 16-20 hours; [CYP] per enzyme as in Table 8
Procedure, shortened: as §1

[14] = Metabolism of tivantinib by P450 aluC09 and mutants; settings: percent of substrate being converted; 0.125 mg/ml, 27° C., 16-20 hours; [CYP] per enzyme as in Table 8
Procedure, shortened: as §1

[15] = Metabolism of BIRB796 by P450 aluC09 and mutants; settings: percent of substrate being converted; 0.125 mg/ml, 27° C., 16-20 hours; [CYP] per enzyme as in Table 8
Procedure, shortened: as §1

[16] = Metabolism of 4-pyrrolidylacetophenone by P450 aluC09 and mutants; settings: percent of substrate being converted; 0.125 mg/ml, 27° C., 16-20 hours; [CYP] per enzyme as in Table 8
Procedure, shortened: as §1

Molecule | Indomethacin (1.74 mins) [1] [%] | O-demethyl-Indomethacin (1.52 mins) [1] [%] | 4′,5-dihydroxy-diclofenac 1.38 mins [2] [%] | 4′-hydroxy-diclofenac (1) 1.62 mins [2] [%] | 5-hydroxy-diclofenac (2) 1.58 mins [2] [%] | Diclofenac (Substrate) 1.81 mins [2] [%] | Hydroxylated Ratio hydroxy 1:hydroxy 2 [2] | % conversions (avg) Tofacitinib [3] [%] | Aceclofenac (Substrate) (1.80 mins) [4] [%] | Dihydroxy-Aceclofenac (1.42 mins) [4] [%] | Hydroxy-Aceclofenac (1) (1.64 min) [4] [%] | Hydroxy-Aceclofenac (2) (1.60 min) [4] [%] | Hydroxylated Ratio 2:1 [4] | % conversions (avg) Celecoxib [5] [%] | % conversions (avg) Buparvaquone [6] [%] | Desethyl Napropamide (1.62 min) [7] [%] | Desethyl-hydroxy-Napropamide (1.41 min) [7] [%] | Hydroxy-Napropamide (1) (1.53 min) [7] [%] | Hydroxy-Napropamide (2), (1.52 min) [7] [%] | M-2Da (unidentified) (1.89 min) [7] [%] | other results
B1 | 94.6 | 5.4 | 1.8 | 30.3 | 10.8 | 58.0 | 2.8 | 0 | 25.2 | 27.8 | 7.9 | 39.1 | 4.9 | 5.4 | 9.7 | 46.0 | 9.7 | 2.5 | 5.3 | 5.8 | Napropamide (substrate) [7]: 34.1%; Hydroxylated Ratio 2:1 [7]: 2.1; Flufenamic Acid (Substrate) 1.93 mins [8]: 95.9%; Hydroxy-Flufenamic Acid (1) 1.69 mins [8]: 2.0%; Hydroxy-Flufenamic Acid (2) 1.65 mins [8]: 2.1%; Hydroxylated Ratio 1:2 [8]: 0.9; % conversions (avg) Ruxolitinib [9]: 48.9%; % conversions (avg) Bosentan [10]: 100%; % conversions (avg) Valsartan [11]: 38%; % conversions (avg) Ritonavir [12]: 31.9%; % conversions (avg) Epothilone B [13]: 50.8%; % conversions (avg) Tivantinib [14]: 7.2%; % conversions (avg) BIRB796 [15]: 23%; % conversions (avg) 4-pyrrolidylacetophenone [16]: 30.8%
B2 | 84.4 | 15.6 | 3.2 | 44.8 | 21.8 | 32.3 | 2.1 | 4.4 | 9.2 | 43.2 | 6.9 | 40.8 | 5.9 | 8.1 | 17.9 | 53.7 | 10.6 | 0.9 | 3.1 | 6.0 | Napropamide (substrate) [7]: 28.7%; Hydroxylated Ratio 2:1 [7]: 3.4; Flufenamic Acid (Substrate) 1.93 mins [8]: 94.4%; Hydroxy-Flufenamic Acid (1) 1.69 mins [8]: 3.4%; Hydroxy-Flufenamic Acid (2) 1.65 mins [8]: 2.2%; Hydroxylated Ratio 1:2 [8]: 1.6; % conversions (avg) Ruxolitinib [9]: 33.9%; % conversions (avg) Bosentan [10]: 100%; % conversions (avg) Valsartan [11]: 21.9%; % conversions (avg) Ritonavir [12]: 51.7%; % conversions (avg) Epothilone B [13]: 16.8%; % conversions (avg) Tivantinib [14]: 53.9%; % conversions (avg) BIRB796 [15]: 23.2%; % conversions (avg) 4-pyrrolidylacetophenone [16]: 21.7%
B3 | 84.8 | 15.2 | 3.3 | 43.3 | 22.8 | 32.3 | 1.9 | 1.5 | 12.3 | 43.1 | 8.5 | 36.1 | 4.2 | 3.6 | 11.3 | 44.8 | 4.6 | 2.4 | 5.1 | 7.0 | Napropamide (substrate) [7]: 37.9%; Hydroxylated Ratio 2:1 [7]: 2.1; Flufenamic Acid (Substrate) 1.93 mins [8]: 89.1%; Hydroxy-Flufenamic Acid (1) 1.69 mins [8]: 6.8%; Hydroxy-Flufenamic Acid (2) 1.65 mins [8]: 4.1%; Hydroxylated Ratio 1:2 [8]: 1.7; % conversions (avg) Ruxolitinib [9]: 41.7%; % conversions (avg) Bosentan [10]: 99%; % conversions (avg) Valsartan [11]: 33.9%; % conversions (avg) Ritonavir [12]: 73.5%; % conversions (avg) Epothilone B [13]: 35.3%; % conversions (avg) Tivantinib [14]: 56%; % conversions (avg) BIRB796 [15]: 15.3%; % conversions (avg) 4-pyrrolidylacetophenone [16]: 4.9%
